Positions count from the first letter of the chain named. Numbers in names are those of the source.
T1: Human CD3eg linker (human)
T1 construct: single-chain construct; also called recombinant human CD3
T1 chain: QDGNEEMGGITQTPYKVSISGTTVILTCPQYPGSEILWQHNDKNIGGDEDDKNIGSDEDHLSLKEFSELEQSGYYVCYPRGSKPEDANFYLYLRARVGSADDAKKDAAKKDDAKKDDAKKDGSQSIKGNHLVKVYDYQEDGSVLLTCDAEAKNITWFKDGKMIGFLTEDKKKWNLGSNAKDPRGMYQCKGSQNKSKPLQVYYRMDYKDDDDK

B1: dBBDu183H A100fT/dBBDu072L (antibody, name in Kabat numbering, V domains shown)
VH: QVQLVESGGGLVQPGRSLRLSCAASGFTFSNAWMHWVRQAPGKGLEWVAQIKDKGNAYAAYYAPSVKGRFTISRDDSKNSIYLQMNSLKTEDTAVYYCHYVHYASASTVLPTFGVDAWGQGTTVTVSS
VL: DIVMTQSPLSLPVTPGEPASISCQASQELVHMNRNTYLHWYQQKPGQAPRLLIYKVSNRFPGVPDRFSGSGSGTDFTLKISRVEAEDVGVYYCAQGTSVPFTFGQGTKLEIK
B2: dBBDu183H A102W/dBBDu072L (antibody, name in Kabat numbering, V domains shown)
VH: B1 VH with T112A, A117W
VL: B1 VL
B3: dBBDu183H A102V/dBBDu072L (antibody, name in Kabat numbering, V domains shown)
VH: B1 VH with T112A, A117V
VL: B1 VL
B4: dBBDu183H A100fW/dBBDu072L (antibody, name in Kabat numbering, V domains shown)
VH: B1 VH with T112W
VL: B1 VL
B5: dBBDu183H A102K/dBBDu072L (antibody, name in Kabat numbering, V domains shown)
VH: B1 VH with T112A, A117K
VL: B1 VL
B6: dBBDu183H A102G/dBBDu072L (antibody, name in Kabat numbering, V domains shown)
VH: B1 VH with T112A, A117G
VL: B1 VL
B7: dBBDu183H A102Y/dBBDu072L (antibody, name in Kabat numbering, V domains shown)
VH: B1 VH with T112A, A117Y
VL: B1 VL
B8: dBBDu183H A102Q/dBBDu072L (antibody, name in Kabat numbering, V domains shown)
VH: B1 VH with T112A, A117Q
VL: B1 VL
B9: dBBDu183H A102F/dBBDu072L (antibody, name in Kabat numbering, V domains shown)
VH: B1 VH with T112A, A117F
VL: B1 VL
B10: dBBDu183H A102S/dBBDu072L (antibody, name in Kabat numbering, V domains shown)
VH: B1 VH with T112A, A117S
VL: B1 VL
B11: dBBDu183H A102H/dBBDu072L (antibody, name in Kabat numbering, V domains shown)
VH: B1 VH with T112A, A117H
VL: B1 VL
B12: dBBDu183H A100fV/dBBDu072L (antibody, name in Kabat numbering, V domains shown)
VH: B1 VH with T112V
VL: B1 VL
B13: dBBDu183H A100fY/dBBDu072L (antibody, name in Kabat numbering, V domains shown)
VH: B1 VH with T112Y
VL: B1 VL
B14: dBBDu183H A102N/dBBDu072L (antibody, name in Kabat numbering, V domains shown)
VH: B1 VH with T112A, A117N
VL: B1 VL
B15: dBBDu183H A102R/dBBDu072L (antibody, name in Kabat numbering, V domains shown)
VH: B1 VH with T112A, A117R
VL: B1 VL
B16: dBBDu183H A102T/dBBDu072L (antibody, name in Kabat numbering, V domains shown)
VH: B1 VH with T112A, A117T
VL: B1 VL
B17: dBBDu183H A102E/dBBDu072L (antibody, name in Kabat numbering, V domains shown)
VH: B1 VH with T112A, A117E
VL: B1 VL
B18: dBBDu183H A102D/dBBDu072L (antibody, name in Kabat numbering, V domains shown)
VH: B1 VH with T112A, A117D
VL: B1 VL

Molecular target: T1, Human CD3eg linker
Assay: SPR, vs unmutated H183/L072

fold change of affinity [fold]	Binder
1.6	B1
3.3	B2
1	B3
0.7	B4
1.5	B5
1	B6
2.5	B7
1.3	B8
2	B9
1.9	B10
3.6	B11
1	B12
1.5	B13
1.5	B14
1	B15
0.5	B16
1.1	B17
1.3	B18
